In US20250340608A1 (PROTAGONIST THERAPEUTICS, published 2025):
Like-named read-outs stand apart in the source and are kept apart here. Values belong to the binder of their own block, whether it stands above or below them. Bridge positions count the residues as written; N and C are the ends. Ends that are not written are not given here. * marks the point of attachment. Isovaleryl = CC(C)CC(=O)*

What was measured:
Test in all cases: cell-based or functional assay
[1] = target: T1, human ferroportin (SLC40A1) fused in frame with GFP, stably expressed in HEK293 cells (human, UniProt Q9NP59 1-571)
T1 sequence (looked up): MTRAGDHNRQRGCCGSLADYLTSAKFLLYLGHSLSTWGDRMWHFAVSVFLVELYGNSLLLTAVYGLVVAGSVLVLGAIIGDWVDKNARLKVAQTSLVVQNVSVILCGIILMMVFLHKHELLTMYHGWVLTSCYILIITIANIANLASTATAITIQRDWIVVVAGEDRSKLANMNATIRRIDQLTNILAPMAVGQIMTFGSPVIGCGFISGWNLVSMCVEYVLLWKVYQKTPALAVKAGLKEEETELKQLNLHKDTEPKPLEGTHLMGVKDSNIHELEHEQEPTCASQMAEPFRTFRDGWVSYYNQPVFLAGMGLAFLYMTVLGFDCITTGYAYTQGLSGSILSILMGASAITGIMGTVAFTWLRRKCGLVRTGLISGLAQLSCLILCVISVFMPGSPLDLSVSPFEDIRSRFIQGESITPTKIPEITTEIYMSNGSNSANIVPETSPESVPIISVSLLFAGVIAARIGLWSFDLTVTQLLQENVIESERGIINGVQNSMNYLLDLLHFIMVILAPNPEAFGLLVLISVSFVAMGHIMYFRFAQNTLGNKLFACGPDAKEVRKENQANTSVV

[2] = target: T2, human ferroportin (SLC40A1) fused in frame with GFP, stably expressed on HEK293 cells (human, UniProt Q9NP59 1-571)
T2 sequence (looked up): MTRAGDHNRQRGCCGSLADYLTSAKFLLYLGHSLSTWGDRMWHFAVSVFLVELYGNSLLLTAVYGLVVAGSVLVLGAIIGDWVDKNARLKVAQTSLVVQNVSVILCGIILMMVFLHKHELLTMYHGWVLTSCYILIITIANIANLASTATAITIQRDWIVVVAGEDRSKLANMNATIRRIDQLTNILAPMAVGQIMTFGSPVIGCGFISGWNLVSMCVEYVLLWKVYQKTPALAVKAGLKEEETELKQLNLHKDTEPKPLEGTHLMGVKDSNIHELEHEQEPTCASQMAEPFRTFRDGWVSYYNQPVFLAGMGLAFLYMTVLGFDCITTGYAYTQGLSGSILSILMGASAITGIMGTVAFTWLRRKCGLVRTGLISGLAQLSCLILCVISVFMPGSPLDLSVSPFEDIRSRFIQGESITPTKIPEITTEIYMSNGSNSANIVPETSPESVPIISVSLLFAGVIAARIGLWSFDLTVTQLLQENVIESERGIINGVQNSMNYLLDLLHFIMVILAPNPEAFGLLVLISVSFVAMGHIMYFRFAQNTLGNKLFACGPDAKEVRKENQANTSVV

[3] = target: T1, human ferroportin (SLC40A1) fused in …; remark: listed apart in the source
[4] = target: T1, human ferroportin (SLC40A1) fused in …; remark: listed apart in the source
[5] = target: T1, human ferroportin (SLC40A1) fused in …; remark: listed apart in the source
[6] = target: T1, human ferroportin (SLC40A1) fused in …; remark: listed apart in the source
[7] = target: T1, human ferroportin (SLC40A1) fused in …; remark: listed apart in the source
[8] = target: T2, human ferroportin (SLC40A1) fused in …; remark: listed apart in the source

Binder: H-DTHFPICAFGPRSKGWVCM-NH2 (disulfide 7-18 (inferred)) [Compound 68]
- EC50 (nM) (n > 3) [3]: > 10000 nM

Binder: Isovaleryl-DTHFPCIKFK-NH2 (also: homodimer via disulfide between Cys6 of each monomer) [Compound 345]
- EC50 (nM) (n > 3) [4]: 8 nM
- Log dilutions EC50 (nM) (n > 3) [1]: 8 nM

B2: Compound 349 (peptide)
peptide: Isovaleryl-DTHFPCIKF-NH2
modifications: also: homodimer with IDA-(β-Ala)-Palm linking moiety, attachment site not given here
- Log dilutions EC50 (nM) (n > 3) [1]: 5 nM

Binder: Isovaleryl-DTHFPCIIFGPRSRGWVCK-NH2 (disulfide 6-18 (inferred)) [Compound 3]
- Log dilutions EC50 (nM) (n > 3) [5]: 15 nM
- In Vitro Activity EC50 [6]: 15 nM

Binder: Isovaleryl-DTHFPICIFGPRSKGWVC-NH2 (disulfide 7-18 (inferred)) [Compound 2]
- Log dilutions EC50 (nM) (n > 3) [5]: 4.1 nM
- In Vitro Activity EC50 [6]: 5 nM

Binder: Isovaleryl-DTHFPCIKF-NH2 (also: homodimer via disulfide between Cys6 of each monomer) [Compound 326]
- EC50 (nM) (n > 3) [4]: 3 nM
- Log dilutions EC50 (nM) (n > 3) [1]: 6 nM
- % Activity At 1 uM [7]: 100%
- EC50 (nM) (n = 3) [7]: 3 nM

Binder: Isovaleryl-DTHFPCIKFK-NH2 (also: homodimer linked by DIG linker through Lys10 of each monomer) [Compound 346]
- Log dilutions EC50 (nM) (n > 3) [1]: 15 nM

Now from value to binder:

- Log dilutions EC50 (nM) (n > 3) [1]: > 1000 nM
Binder: DTHFPCIKF-NH2 (not fully specified; printed as [PEG25]-(DTHFPCIKF-NH2)2) [Compound 351]

- EC50 (nM), ferroportin degradation (loss of ferroportin-GFP fluorescence) [2]: > 10000 nM
B1: RI-Mini Hepcidin (Hy-DPhe-DIle-DCys-DIle-DPro-DPhe-DHis-DThr-DAsp-NH2) (peptide)
peptide: FICIPFHTD
modifications: all residues are D-amino acids (retro inverse: reversed sequence in all D amino acids); C-terminal amide (-NH2)

- Log dilutions EC50 (nM) (n > 3) [5]: 5 nM
B3: Compound 352 (peptide)
peptide: Isovaleryl-DTHFPCIIFGPRSRGWVCK-NH2
modifications: disulfide 6-18 (inferred); not fully specified (residue 19); also: dimer through DIG linker on εN of Lys19 of each monomer

- Log dilutions EC50 (nM) (n > 3) [5]: 2.2 nM
B4: Compound 353 (peptide)
peptide: Isovaleryl-DTHFPICIFGPRSKGWVC-NH2
modifications: disulfide 7-18 (inferred); not fully specified (residue 14); also: dimer through DIG linker on εN of Lys14 of each monomer

- EC50 (nM) (n > 3) [8]: 712 nM
- EC50 (nM), ferroportin degradation (loss of ferroportin-GFP fluorescence) [2]: 712 nM
Binder: H-DTHFPICIF-NH2 [Mini-Hepcidin 1-9 (Hy-DTHFPICIF-NH2)]
